{"source": "the supplement of paper PMC9170038", "tested_on": "MS2 coat protein", "assay": "apparent KD of MS2 coat protein; higher = weaker reporter binding", "settings": "Eterna round: R107", "method_in_brief": "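Apparent KD is reported per design as the median of normalised binding-curve fits across its clusters. The RNA switches were made by on-chip transcription from Illumina sequencing clusters. SNAP-549-labelled MS2 coat protein was then added in twofold steps (0.7 or 1.5 nM to 3 µM; 0.8–1.5 h to 10–20 min per step) in 100 mM Tris-HCl pH 7.5, 80 mM KCl, 4 mM MgCl2, without or with constant ligand.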", "key": {"[1]": {"settings": "input ligand: theophylline 20 uM"}, "[2]": {"settings": "input ligand: theophylline 2 mM"}, "[3]": {"settings": "input ligand: tryptophan 2.4 mM"}}, "data": [{"sequence": "GUCCUCGUGUCCGGUUUAGCGCAAAGCGCACGAGGACCGGUACGGCCGCCACUCGAAACAUGAGGAUCACCCAUGUGAAGAAUAA [Design 1]", "values": [{"measurement": "apparent KD of MS2 coat protein", "setting": "input ligand: arginine 13.2 mM", "value": 14.4, "unit": "nM"}, {"measurement": "apparent KD of MS2 coat protein", "setting": "input ligand: none", "value": 14.6, "unit": "nM"}, {"measurement": "apparent KD of MS2 coat protein", "setting": "[1]", "value": 21.8, "unit": "nM"}, {"measurement": "apparent KD of MS2 coat protein", "setting": "[2]", "value": 15.8, "unit": "nM"}, {"measurement": "apparent KD of MS2 coat protein", "setting": "[3]", "value": 17.8, "unit": "nM"}]}, {"sequence": "GUCUGUGUCUGAAGGAGCGACAUGAGGAUCACCCAUGUCUCCCGUUAUGGGAGUUCCUUAGGUCAGGUAGGUCGCAGACACAGAC [#1 Exclusion - Arginine B Attempt #27 (Inspired by Omei)]", "values": [{"measurement": "apparent KD of MS2 coat protein", "setting": "input ligand: arginine 13.2 mM", "value": 110, "unit": "nM"}, {"measurement": "apparent KD of MS2 coat protein", "setting": "input ligand: none", "value": 123, "unit": "nM"}, {"measurement": "apparent KD of MS2 coat protein", "setting": "[1]", "value": 164, "unit": "nM"}, {"measurement": "apparent KD of MS2 coat protein", "setting": "[2]", "value": 187, "unit": "nM"}, {"measurement": "apparent KD of MS2 coat protein", "setting": "[3]", "value": 107, "unit": "nM"}]}, {"sequence": "GUGGCGAUCACGGCCGCCACUGAGCAGGUCGAGCUUGACAUGAGGAUCACCCAUGUCUGACGAUACAGGACCGGGUGAUCUCCGC [Titiinanon]", "values": [{"measurement": "apparent KD of MS2 coat protein", "setting": "input ligand: arginine 13.2 mM", "value": 16.5, "unit": "nM"}, {"measurement": "apparent KD of MS2 coat protein", "setting": "input ligand: none", "value": 21.7, "unit": "nM"}, {"measurement": "apparent KD of MS2 coat protein", "setting": "[1]", "value": 94.6, "unit": "nM"}, {"measurement": "apparent KD of MS2 coat protein", "setting": "[2]", "value": 149, "unit": "nM"}, {"measurement": "apparent KD of MS2 coat protein", "setting": "[3]", "value": 19.7, "unit": "nM"}]}, {"sequence": "GUUGGACUUUCGGCCGCCACUGAGAGAGUCGUGUGAACAUGAGGAUCACCCAUGUAAUAUAUAUACAGGACCGGGAGGGUUGUAA [4.N]", "values": [{"measurement": "apparent KD of MS2 coat protein", "setting": "input ligand: arginine 13.2 mM", "value": 8.94, "unit": "nM"}, {"measurement": "apparent KD of MS2 coat protein", "setting": "input ligand: none", "value": 11.3, "unit": "nM"}, {"measurement": "apparent KD of MS2 coat protein", "setting": "[1]", "value": 22.2, "unit": "nM"}, {"measurement": "apparent KD of MS2 coat protein", "setting": "[2]", "value": 19.7, "unit": "nM"}, {"measurement": "apparent KD of MS2 coat protein", "setting": "[3]", "value": 11.3, "unit": "nM"}]}, {"sequence": "GUUUAAAGGUCGGCCGCCACUGUAGGAUGUGUUCUUUCACAUGAGGAUCACCCAUGUUGUUAUUAUAGGACCGGGAUUGUAGGAC [39MS split4]", "values": [{"measurement": "apparent KD of MS2 coat protein", "setting": "input ligand: arginine 13.2 mM", "value": 22.6, "unit": "nM"}, {"measurement": "apparent KD of MS2 coat protein", "setting": "input ligand: none", "value": 41.4, "unit": "nM"}, {"measurement": "apparent KD of MS2 coat protein", "setting": "[1]", "value": 42.3, "unit": "nM"}, {"measurement": "apparent KD of MS2 coat protein", "setting": "[2]", "value": 35.5, "unit": "nM"}, {"measurement": "apparent KD of MS2 coat protein", "setting": "[3]", "value": 31.7, "unit": "nM"}]}, {"sequence": "GUUUUAUACUCGGCCGCCACUGAGAGAGUCAUGUAAACAUGAGGAUCACCCAUGUAAUAUAUAUACAGGACCGGGAGUAGGGUAA [4.F]", "values": [{"measurement": "apparent KD of MS2 coat protein", "setting": "input ligand: arginine 13.2 mM", "value": 10.1, "unit": "nM"}, {"measurement": "apparent KD of MS2 coat protein", "setting": "[1]", "value": 16.1, "unit": "nM"}, {"measurement": "apparent KD of MS2 coat protein", "setting": "[2]", "value": 12.2, "unit": "nM"}]}, {"sequence": "UAAAACAUGAGGAUCACCCAUGUAUUGAGUCGAGGACCGGUACGGCCGCCACUCGGCAAUAAUAACGACGCAUAGCAUGUAGGAA [theeternabot_sameState_MS2_Trp_A_41]", "values": [{"measurement": "apparent KD of MS2 coat protein", "setting": "input ligand: arginine 13.2 mM", "value": 12.8, "unit": "nM"}, {"measurement": "apparent KD of MS2 coat protein", "setting": "[1]", "value": 19.5, "unit": "nM"}, {"measurement": "apparent KD of MS2 coat protein", "setting": "[2]", "value": 14.9, "unit": "nM"}]}, {"sequence": "UAAAACAUGAGGAUCACCCAUGUAUUUGAUACCAGAGUGAUGAUCCUCCCUUGGCAGCAAAUAACGCAUUGAUUACAAUGCGAAA [Mat - Same State Theophlline A - Mod of Eli - D28]", "values": [{"measurement": "apparent KD of MS2 coat protein", "setting": "input ligand: arginine 13.2 mM", "value": 34.8, "unit": "nM"}, {"measurement": "apparent KD of MS2 coat protein", "setting": "[1]", "value": 121, "unit": "nM"}, {"measurement": "apparent KD of MS2 coat protein", "setting": "[3]", "value": 36, "unit": "nM"}]}, {"sequence": "UAAAAUAUCUGGGUGUAGGUAAUAACAGAUACCAGCCAGAUAACUGGCCCUUGGCAGCUGAAAACAUGAGGAUCACCCAUGUAAA [TheoAS 22 #OpenEnded #Ms2Late]", "values": [{"measurement": "apparent KD of MS2 coat protein", "setting": "input ligand: arginine 13.2 mM", "value": 28.1, "unit": "nM"}, {"measurement": "apparent KD of MS2 coat protein", "setting": "input ligand: none", "value": 30.7, "unit": "nM"}, {"measurement": "apparent KD of MS2 coat protein", "setting": "[1]", "value": 50.3, "unit": "nM"}, {"measurement": "apparent KD of MS2 coat protein", "setting": "[2]", "value": 236, "unit": "nM"}, {"measurement": "apparent KD of MS2 coat protein", "setting": "[3]", "value": 28.6, "unit": "nM"}]}, {"sequence": "UAAACUACACAUGAGGAUCACCCAUGUGGCCGAGGACCGGUACGGCCGCCACUCGUGUGUUAAUAAAAGAACCGCAAAGUUCUGU [Ticerear]", "values": [{"measurement": "apparent KD of MS2 coat protein", "setting": "input ligand: arginine 13.2 mM", "value": 49.8, "unit": "nM"}, {"measurement": "apparent KD of MS2 coat protein", "setting": "[1]", "value": 401, "unit": "nM"}, {"measurement": "apparent KD of MS2 coat protein", "setting": "[2]", "value": 452, "unit": "nM"}]}, {"sequence": "UAACAUGAGGAUCACCCAUGUAUAGUCGAUACCAGCUCUGUCUAGAGCCCUUGGCAGCGACACUGGUAUCCAUGGGUGUGGAUAC [(Ms2)-(Theo)-(T)'-(M)'-(M)'']", "values": [{"measurement": "apparent KD of MS2 coat protein", "setting": "input ligand: arginine 13.2 mM", "value": 20.1, "unit": "nM"}, {"measurement": "apparent KD of MS2 coat protein", "setting": "[1]", "value": 98.4, "unit": "nM"}, {"measurement": "apparent KD of MS2 coat protein", "setting": "[3]", "value": 103, "unit": "nM"}]}, {"sequence": "UAACAUGAGGAUCACCCAUGUUUGAAGAAACGAGGACCGGUACGGCCGCCACUCGACGAGUGGAUGAAUAGUGGGCUUGUGUGCU [Same State Trp A GF10]", "values": [{"measurement": "apparent KD of MS2 coat protein", "setting": "input ligand: arginine 13.2 mM", "value": 11, "unit": "nM"}, {"measurement": "apparent KD of MS2 coat protein", "setting": "[1]", "value": 16, "unit": "nM"}, {"measurement": "apparent KD of MS2 coat protein", "setting": "[2]", "value": 13.1, "unit": "nM"}]}, {"sequence": "UAAUAAAUAAGUGAUACCAGCGAGAAAACAUGAGGAUCACCCAUGUUCGCCCAUGUUAAGCGCCCUUGGCAGCACAAAUAUAAAA [AstrosExyTheB#1]", "values": [{"measurement": "apparent KD of MS2 coat protein", "setting": "input ligand: arginine 13.2 mM", "value": 25.6, "unit": "nM"}, {"measurement": "apparent KD of MS2 coat protein", "setting": "[1]", "value": 42.7, "unit": "nM"}, {"measurement": "apparent KD of MS2 coat protein", "setting": "[3]", "value": 33.6, "unit": "nM"}]}, {"sequence": "UAAUAAGUACCGGUCCUCAGAUCCUCAUGACGAGGACCGGUACGGCCGCCACUCGAAACAUGAGGAUCACCCAUGUAAUAAUAAU [|T'-M'-Trp-Ms2|_Design 1]", "values": [{"measurement": "apparent KD of MS2 coat protein", "setting": "input ligand: arginine 13.2 mM", "value": 17.9, "unit": "nM"}, {"measurement": "apparent KD of MS2 coat protein", "setting": "input ligand: none", "value": 22.2, "unit": "nM"}, {"measurement": "apparent KD of MS2 coat protein", "setting": "[1]", "value": 29.4, "unit": "nM"}, {"measurement": "apparent KD of MS2 coat protein", "setting": "[2]", "value": 36.9, "unit": "nM"}, {"measurement": "apparent KD of MS2 coat protein", "setting": "[3]", "value": 18.3, "unit": "nM"}]}, {"sequence": "UAAUACCAGGUCAACGUACCAGGUGAUCAACGAGGACCGGUACGGCCGCCACUCGAAACAUGAGGAUCACCCAUGUAAGACCUGG [|T'-M'-Trp-Ms2|_Design 2_ML2]", "values": [{"measurement": "apparent KD of MS2 coat protein", "setting": "input ligand: arginine 13.2 mM", "value": 20.9, "unit": "nM"}, {"measurement": "apparent KD of MS2 coat protein", "setting": "input ligand: none", "value": 134, "unit": "nM"}, {"measurement": "apparent KD of MS2 coat protein", "setting": "[1]", "value": 185, "unit": "nM"}, {"measurement": "apparent KD of MS2 coat protein", "setting": "[2]", "value": 141, "unit": "nM"}, {"measurement": "apparent KD of MS2 coat protein", "setting": "[3]", "value": 61.3, "unit": "nM"}]}]}
